The experiment addresses T1, TSEN15 tryptic fragment (residues 23 to 170) (human, UniProt Q8WW01 23-170).
T1 sequence (looked up): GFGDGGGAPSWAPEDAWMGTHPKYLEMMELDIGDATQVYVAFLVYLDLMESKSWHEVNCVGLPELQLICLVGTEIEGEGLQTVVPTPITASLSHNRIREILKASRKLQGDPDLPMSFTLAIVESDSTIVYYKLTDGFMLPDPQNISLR
Briefly: SEC. For orientation: In gel filtration, larger molecules generally elute earlier.

The values below come from publication doi:10.1101/2020.08.03.234229 (bioRxiv, 2020).

B1: TSEN34 tryptic fragment (residues 208 to 310) (domain or fragment, human, UniProt Q9BSV6 208-310, looked up)
chain: DWPHAGRPAHELRYSIYRDLWERGFFLSAAGKFGGDFLVYPGDPLRFHAHYIAQCWAPEDTIPLQDLVAAGRLGTSVRKTLLLCSPQPDGKVVYTSLQWASLQ
For the molecule B1, the binding result is listed as “binds”.
